These are literature values, as cited in PMC7589189.

Like-named read-outs stand apart in the source and are kept apart here.

The Kd is a measure of binding affinity in units of concentration.

The target in data set [1] is ActRIIA (Homo sapiens) (UniProt P27037).
Data set [2] concerns the target ALK1-Fc (Homo sapiens) (UniProt P37023). Put plainly: SPR.
Data set [3] concerns the target TβRII (Homo sapiens) (UniProt P37173).
The target is the same in data set [4]. The source holds these as a separate data set.
Data set [5] has the same target. This is another data set of the same source.

Sequence of TβRII (Homo sapiens) (P37173 23-166): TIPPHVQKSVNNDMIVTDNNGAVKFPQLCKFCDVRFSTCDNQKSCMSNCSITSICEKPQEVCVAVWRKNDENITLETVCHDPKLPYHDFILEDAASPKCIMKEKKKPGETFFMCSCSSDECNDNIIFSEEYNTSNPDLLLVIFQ
Sequence of ALK1-Fc (Homo sapiens) (P37023 22-118): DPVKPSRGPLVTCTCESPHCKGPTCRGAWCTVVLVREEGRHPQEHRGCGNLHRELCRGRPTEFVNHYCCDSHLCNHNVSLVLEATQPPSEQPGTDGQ
Sequence of pro-BMP-9 (Q9UK05 320-429): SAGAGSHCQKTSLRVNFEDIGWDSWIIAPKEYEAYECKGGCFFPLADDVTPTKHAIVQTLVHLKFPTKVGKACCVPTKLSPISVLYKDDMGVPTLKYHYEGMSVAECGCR
Sequence of BMP-9 (Q9UK05 320-429): as above
Sequence of BMP-7 (P18075 293-431): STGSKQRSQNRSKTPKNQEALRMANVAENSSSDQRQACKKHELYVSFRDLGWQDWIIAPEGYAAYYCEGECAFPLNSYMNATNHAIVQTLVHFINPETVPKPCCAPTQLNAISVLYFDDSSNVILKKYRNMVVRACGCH
Sequence of TGF-β1 (P01137 279-390): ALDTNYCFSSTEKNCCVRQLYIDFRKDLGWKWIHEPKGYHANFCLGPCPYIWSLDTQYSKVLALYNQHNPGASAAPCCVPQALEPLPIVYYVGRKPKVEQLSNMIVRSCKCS
Sequence of ActRIIA (Homo sapiens) (P27037 20-135): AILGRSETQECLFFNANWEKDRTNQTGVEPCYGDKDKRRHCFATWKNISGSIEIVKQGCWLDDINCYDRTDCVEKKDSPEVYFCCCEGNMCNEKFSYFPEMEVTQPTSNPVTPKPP
Sequence of TGF-β2 (P61812 303-414): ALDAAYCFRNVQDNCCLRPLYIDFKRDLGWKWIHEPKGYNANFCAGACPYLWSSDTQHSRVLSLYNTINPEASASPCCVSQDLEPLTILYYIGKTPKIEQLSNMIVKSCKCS
Sequence of TGF-β3 (P10600 301-412): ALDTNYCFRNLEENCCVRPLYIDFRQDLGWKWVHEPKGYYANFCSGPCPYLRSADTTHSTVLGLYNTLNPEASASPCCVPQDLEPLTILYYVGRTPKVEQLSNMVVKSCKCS

As to BMP-7 (from UniProt P18075), in data set [1], the Kd was 8 nM.
Regarding BMP-9 (from UniProt Q9UK05), in data set [2], the Kd was 0.048 nM.
For TGF-β1 (from UniProt P01137), the Kd in data set [3] was 0.2 nM.
For the substance TGF-β2 (from UniProt P61812), the equilibrium dissociation constant (Kd) in data set [4] is above 10 nM.
Regarding TGF-β3 (from UniProt P10600), in data set [5], the dissociation constant (Kd) was 0.5 nM.
pro-BMP-9 (from UniProt Q9UK05): in data set [2], the Kd is 0.061 nM.
